Assay: yeast display, Sf9 membrane polyspecificity reagent, FACS + sequencing; frameworks hold sequencing errors
Summary of the method: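 Nanobodies came from a synthetic yeast display library in Saccharomyces cerevisiae BJ5465, induced with galactose for 36–48 hours and stained for 1 hour at 4 °C with 10% biotinylated, detergent-solubilized Sf9 membrane reagent. Cells were enriched on streptavidin microbeads and then FACS-sorted, with low and high (top ~1%) gates set on anti-HA fluorescence for expression and streptavidin fluorescence for reagent binding. Each polyreactivity label reflects the gate a clone came from. Genes were amplified by colony PCR, sequenced by MiSeq 2 × 250 and filtered by CDR length.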

Sequence	polyreactivity (PSR sort gate)
QVQLVESGGGLVQAGGSLRLSCAASGSNFVGNAMGWYRQAPGKERELFAAISSGGSTYYADSVKGRFTISRDNAKNTVYLQLNSLKPEDTAVYYCAAYYVRRYSSRPKDDYWGQGTQVTVSS	low polyreactivity
QVQLVESGGGLVQAGGSLRLSCAASGSIIKRNAMGWYRQAPGKERELVASISSGDGSTNYADSVKGRFTISRDNAKNTVYLQMNSLKPEDTAVYYCNAPFWGYRTSFSYPVVQRFDYWGQGTQVTVSS	low polyreactivity
QVQLVESGGGLDQAGGSLRLSCAASGSISVWYVMGWYRQAPGKERELVAAITRSGGSTFYADSLKGRFTISRDNAKNTVYLQMNSLKPEDTAVYYCASDGGVAWGYGDWGQGTQVTVSS	low polyreactivity
QVQLVESGGGLVQAGGSLRLSCAASGSTLFNYTMGWYRQAPGKESELVAAISSGGSTNYADSEKGRFTISRDNAKNTFYLQMNSLKPEDTAVYYCATDHDPWSWYRYDYWGQGTQVTVSS	low polyreactivity
QVHLVESGGGLVQAGGSLRLSCAASGRIFGDYAMGWYRQATGKERELVAAINSSGTSTNYADSVKGRFTFSRDNAKNTVYLQMNSLKPEDTAVYYCNAEGTYRPEYDSWGQGTQVTVSS	low polyreactivity
QVQLVESGGGLVQAGGSLRLSCAASGSIFFYYAMGWYRQAPGKERELVAAINSDGSTNYADSVKGRFTISRDNAKNTVYLQMNSLKPEDTAVYYCAAYDEYYGYDYWGQGTQVTVSS	low polyreactivity
QVQLVESGGGLVQAGGSLRVSCAASGTTFPRNAMGWYRQAPGKERELVATITSAGGGTYYADSVKGRFTISRDNAKNSVYLQMNSLKPEDTAVYYCNADGPAGDAFDSWGQGTQVTVSS	low polyreactivity
QVQLVESGGGLVQAGGSLRLSCAASGIIYYLYAMGWYRHAPGKERELVATISRRGGSTYYADSVKGRFTISRDNAKNTVYLQMNSLKPEDTAVYYCATGHYSVGRSFSSGSYEYWGQGTQVTVSS	high polyreactivity
QVQLVESAGGLVQAGGILRLSCAASGSIFVGYDMGWSRQAPGKERELVAAITSSGGGSTYYADSVKGRFTISRDNAKNTVYLQMNSLKPEDTAVYYCAARTSLWWFLKYDYWGQGTQVTVSS	low polyreactivity
QVQLVESGGGLVQAGCSLRLICAASGFIFRTYAMGWYRQAPGKESELVAAISRGGVRTYYADSVKGRFTISRDNAKNTVYLQMNSLKPEDTAVYYCAADDVHGIYDYWGQGTQVTVSS	high polyreactivity
QVQLVESGGGLVQAGGSLRISCAASGSTFFRNAMGRYRQAPGKERELVAAITWSGGSTYYADSVKGRFTISRDNAKNTVYLQMNSLKPEDTAVYYFAAGLSYWTPHYYPFDYWGQGTQVTVSS	low polyreactivity
QVQLVESGGCLVQAGGSLRLSCAASGRIFLPYAMVWYRQAPGKERELVASITRRGGTTYYADSVKGRFTISRDNAKNTVYLQMNSLKPADSAVYYCAKESWPYGTRGYYHYEYWGQGTQVTVSS	high polyreactivity
QVQLVESGGGLVQAGGSLRISCAASGRTLRPNAMGWYRQAPGKERELVAAITWSGGRTYYADSVKGRFTISRDNAKNTVYLQMNSLKPGDTAVYYCAADYGYYRGGVYFQKLKFDYWGQGTQVTVSS	high polyreactivity
QVQLVESGGGLVQAGGSLRLSCAASGLIFVKYARGWYRQAPGKEREFVAAITRSGGTTYYADSVKGRFTISRDNAKNPVYLQMNSLKPEDTAVYYCAAGVVIYFFGGGDYWGQGPQVTVSS	low polyreactivity
QVQLVESGGGLVQAGGSLRLSCAASGRTFFPYAMGWYRQAPGKERELVAAISLDDDTTYYADSVKGRFTISRDNAKNTVYLQMNSLKPEDTAVYYCAARGTRVRSLYDYWGQGTQVTVSS	high polyreactivity
QVQLVESGGGLVQAGGSLRLICAASGSFFSKYAMGWYRQAPGTEREWVAAISWSGTSTYYADSVKGRFTISRDNAKITVYLQLNSLKTEDNAVSYCAASSPRSLSLLGYWGQGTQVTESS	low polyreactivity
QVQLVESGGGLVQAGGSLRLSCAASGRIFAVNAMGWYRQAPGKERELVATINSGGNTNYADSVKGRFTISRDNAKNTVYLQMNSLKPVDTAVYYCAARAFSAWLEMDYWGQGTQVTVSS	low polyreactivity
QDQHVESAGGLVQAGGSLRLSCAASGRIFTINARGWYRQAPGKERELVAGISGRSGGTYYADSVKGRFTISRDNAKNTVYLEMNSLKPEDTAVYYCAGDDWYSTYFEFNYWGQGTQVTVSS	low polyreactivity
QVQLVESGGGLVQAGGSLRLSCAASGRIFGINAMGWYRQAPGKERELVAAINWSGGSTYYADSVKGRFTISRDNAKNTVYIQMNSLKPEDSAVYYCAAQKYKRVGYWGQGTQVTVSS	high polyreactivity
QVQLVESGGGLVQAGGRLRLSCGASGIIFVYYTMGWDRQAPGKERELVAAITSGGSTYYADSVKGRFTISRDNAKNTVFLQINSLKPEDTAVYYCAAVGRPPYAGDRGFRGQGTQVTVSS	high polyreactivity

Sequence	polyreactivity (PSR sort gate)
QVQLVESGGGLVQAGGSLRLSCAASGRTFRPYAMGWYRQAPGKERELVAAIDSSGTSTYYADSVKGRFTISRDNAKNTVYLKMNSLKPEDTAVYYCAKAWPDHWYSRYDYWGQGTQVTVSS	low polyreactivity
QVHLVDSGGGLVQAGGSLSLSCAYSGSIFLTNAMGWYRHAPGKERELVDAITGDGSTNYADSVKGRFTISRDNAKNTVYLKMNSLIPEDTAVYYCDKDRGWSQWVDYDYWGQGTQVTVSS	low polyreactivity
QVQLVESGGGLVQAGGSLRLSCAASGSIFRYYAMGWYRQAPGKERELVANISRGGRTYYADSVKGRFTISRDNAKYTVYLQLHSLNPEDTSVYYCAAGYWFSYSRVTRYDYWGQGTQVTVSS	high polyreactivity
QVHLVETGGGLLQAGGSLRLSFAASGFTFWRYAMGWSRQAPGKESELVAAISRTGGRTYYADSLKGRFTISRDHAKNTVYLQMNSLNPEDTAVYYCNAPRGYSSTRNGYWGQGTQVTVSS	high polyreactivity
QVQLVESGGGLVQAGGSLSLSCAASGIIFVDYAMGWYRQAPGKERELVAVIRSAGSTYYADSVKGRFTISRDNAKNTVYLQMNSLKPEDTAVYYCNARARGARRYYYWGQGTQVTVSS	high polyreactivity
QVQLVESGGGLVQAGGSLRLSCAASGRTFRHYAMGWYRQAPGKEREFVAAISRSGGSTRYADSVKGRFTISRDNAKNTVYLQMNSLKPEDTAVYYCAATSRSYNDYDYWGQGTQVTVSS	high polyreactivity
QVQLVESGGGLVQAGGSLRLSCAASGFTFLYYDMGWYRQAPGKERELVAAITSSGTSTYYADSVKGRFTISRDNAKNSVYLQMNSLKPEDTAVYYCAVMYTYAGRHRYGYWGQGTQVTVSS	high polyreactivity
QDQLVESGGGLVQAGGSLRLSCAASGRIFKSYAMGWYRQAHGKERELVAAISSSGGSTYYADSVKGRFTISRDNAKNTVYLQMNSLKPEDTAVYYCAAYGHYSWSYDYWGQGTQVTVSS	high polyreactivity
QVQLVESGGGLVQAGGSLRLSCAASGRTFALYAMGWYRQAPGKERELVASISWRGGSTYYADSVKGRFTISRDNAKNTVYLQMNSLKPEDTAVYYCAADTWSYGPLNYRLEYWGQGTQVTVSS	low polyreactivity
QVQLVESGGGLVQAGGSLRLSCAASGSIFYWNAMGWYRQAPGKERELVAAISSSGSSTYYADSVKGRFTISRDNAKNTVYLQMNSLKPEDTAVYYCAADNYNSGGTRHMYYWGQGTQVTVSS	high polyreactivity
QVQLVESWGGLVQAGGSLRLSSPASGFTFFYYAMGWYRPAPGKERELVAAITSGGSTKNADSVKGRFTISRDNAKNSVYLQMNSLKPEDTAVYYCAARVRISGSPRILYNYWGQGTQVTVSS	high polyreactivity
QVQIVESGGGLVQAGGSLRLSCAASGITFTVYAMGWYRQAPGKVRELVAAINSGSSTNYADSVKGRFTISRDNAKNTVYLQMNSLNPEDTAVYYCAASYRKLPDKKRYGYWGQGTQVTVSS	high polyreactivity
QFQLVESGGGLVQAGGSLRLSCAASGIIFTTYVMGWYRQAPGKERELVAAISRGGRTYYADSVKGRFTSSRDNAKNTVYLQMNSLKPEDTAVYYCARVAYKGYGEDDYWGQGTQVTVSS	high polyreactivity
QVQLVESGGGLVQAGGSLRLSCAASGLIFKYNVMGWYRQAPGKERELVAAITKRGGSTYYADSVKGRFTISRDNEKNTVYLQMNSLKPEDTAVYYCAARPVNTVRPFDYWGQGTQVTVSS	high polyreactivity
QVQLVESGGGLVQAGGSLRLSCAASGSTFCENDMGWYRQAPGKERELVAAISWTGGRTYYADSVKGRFTISRDNAKNTVYLQMNSLKAEDTAVYYFAAEWEYYGFDYWGQGTQVTVSS	low polyreactivity
QVQLVESGGGLVQAGGSLRLSCAASGSIFIYNAMGWYRQAPGKERELVAAISSSGGSTYYADSVKGRFTISRDNAKNTVYLQMNSLKPVDTAVYYCAARTYYVRGLGGRPGMDYWGQGTQVTVSS	low polyreactivity
QVQLVESGGGLVQAGGSLRLSCAASGFTLYYYAMGWYRQAPGKERELVAAISTRGGRTYYADSVKGRFTISRDNAKNTVYLQINSLKPEDTAVYYCAAAFSLKSLNTRWTWSRYYYWGQGTQVTVSS	high polyreactivity
QVQLVESGGGLVQAGGSLRLSCAASGNIFGDYAMGWYRQAPGKERELVAAITQTGGNTYYADSVKGRFTISRDNAKNTVYLQMNSLKPEDTAVYYCNKVSVVYSRSKGFYYTYLKYEYWGQGTQVTVSS	low polyreactivity
QVQLVESGGGLDQAGGSLRLSCAASGIIFWYNARGWYRQAPGKERELVAAINYGGSTNYADSVKGRFTISRDNAKNTVYLQMNSLKQEDTAVDYCNADRSVIHRGYIWQPGRNDYWGQGTQVNVSS	low polyreactivity
QVQLVESGGGLVQAGGSLRLSCAASGRIFDEYAMGWYRQAPGKERELVAAIDTSTGSTYYADSVKGRFTISRDNAKNTVYLQMNSLKPEDTAVYYCAAEVYFGLFYVVFQYDYWGQGTQVTVSS	high polyreactivity
